Here are results for 14 molecules from patent US20230357343A1 (ASHER BIOTHERAPEUTICS, published 2023).

Numbering of substitutions follows the chain as printed. Names and notes keep the numbering of the source.

The target in assay [1] is recombinant human IL-21R, extracellular domain fused to 8xHistidine tag (generated in house) (human, UniProt Q9HBE5 20-232). Kind of assay: SPR 37 C.
For assay [2], the target named is T1, Human IL-21R (Biolegend, Catalog No. 773104) (human, UniProt Q9HBE5 20-232, limits assumed).
T1 construct: Bought protein; also called IL-21 receptor
T1 sequence (Q9HBE5 20-232 limits assumed): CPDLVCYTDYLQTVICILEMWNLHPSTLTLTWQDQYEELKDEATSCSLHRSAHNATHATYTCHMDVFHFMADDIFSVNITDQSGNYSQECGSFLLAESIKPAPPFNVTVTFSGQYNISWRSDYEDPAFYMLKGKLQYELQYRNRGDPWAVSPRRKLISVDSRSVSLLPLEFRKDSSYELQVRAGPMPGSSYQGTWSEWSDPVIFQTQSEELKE
Kind of assay: SPR 37 C.

Assay [3] addresses T1, Human IL-21R (Biolegend, Catalog No. …). Kind of assay: SPR 37 C, Fc-captured fusion.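 Further: biacore SPR with anti-human IgG Fc surface and blank flow cell as reference, 10 min dissociation, double-referenced, 1:1 Langmuir fit with mass transport, triplicate runs.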
Assay [4] deals with human CD8 on CD8+ T cells (human, UniProt P01732 22-235; P10966 22-210). In words: cell-based or functional assay.
human CD8 on CD8+ T cells, sequence (P01732 22-235, chain 1 of 2): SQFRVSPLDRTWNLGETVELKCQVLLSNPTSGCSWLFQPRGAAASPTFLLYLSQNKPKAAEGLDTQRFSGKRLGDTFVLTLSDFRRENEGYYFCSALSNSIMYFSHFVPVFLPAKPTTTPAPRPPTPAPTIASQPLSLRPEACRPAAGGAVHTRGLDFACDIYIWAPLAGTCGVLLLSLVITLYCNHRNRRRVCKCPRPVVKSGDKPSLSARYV
human CD8 on CD8+ T cells, sequence (P10966 22-210, chain 2 of 2): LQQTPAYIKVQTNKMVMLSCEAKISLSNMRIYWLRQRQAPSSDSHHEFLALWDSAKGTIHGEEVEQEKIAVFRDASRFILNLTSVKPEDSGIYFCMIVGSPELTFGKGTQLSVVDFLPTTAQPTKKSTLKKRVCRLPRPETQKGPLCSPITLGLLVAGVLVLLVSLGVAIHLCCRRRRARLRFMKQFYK
Assay [5] has as its target T2, mouse CD8 (mouse, UniProt P10300 22-175, limits assumed).
T2 construct: also called mouse CD8b
T2 sequence (looked up): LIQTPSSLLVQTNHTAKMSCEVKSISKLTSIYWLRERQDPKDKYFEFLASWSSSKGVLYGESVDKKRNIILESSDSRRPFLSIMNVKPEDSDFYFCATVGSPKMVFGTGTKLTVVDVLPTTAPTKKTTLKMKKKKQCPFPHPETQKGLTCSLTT
In words: stated; no assay described.

recombinant human IL-21R, extracellular domain fused to 8xHistidine tag (generated in house), sequence (Q9HBE5 other isoform, or with tags, fused parts or gaps limits assumed): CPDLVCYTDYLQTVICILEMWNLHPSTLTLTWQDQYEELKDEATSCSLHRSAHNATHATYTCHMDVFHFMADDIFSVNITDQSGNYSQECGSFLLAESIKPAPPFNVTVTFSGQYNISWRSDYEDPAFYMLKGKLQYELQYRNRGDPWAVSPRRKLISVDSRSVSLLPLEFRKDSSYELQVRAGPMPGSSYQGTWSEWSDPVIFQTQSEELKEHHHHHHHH

B1: xhCD8.1-hIL21 v2.20 (other)
chain: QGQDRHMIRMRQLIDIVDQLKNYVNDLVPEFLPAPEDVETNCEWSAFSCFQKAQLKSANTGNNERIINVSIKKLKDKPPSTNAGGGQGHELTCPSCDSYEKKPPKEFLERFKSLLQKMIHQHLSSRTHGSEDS
VH: QVQLVQSGAEVKKPGSSVKVSCKASGGTFSSYAISWVRQAPGQGLEWMGGIIPGYATANYAQKFQGRVTITADESTSTAYMELSSLRSEDTAVYYCARDAAGIRLFADWGQGTLVTVSS
VL: DIQMTQSPSSLSASVGDRVTITCRASQSIYGALNWYQQKPGKAPKLLIYGASNLQSGVPSRFSGSGSGTDFTLTISSLQPEDFATYYCQSTYTAPWTFGGGTKVEIK
notes: hIgG1/kappa; IL-21 part on one heavy-chain C-terminus via (G4S)3 linker
Turning to B1, the binding result in assay [1] is listed as “no binding”.

B2: xhCD8.1-hIL21 v29 (other)
chain: QGQDRHMIRMRQLIDIVDQLKNYVNDLVPEFLPAPEDVETNCEWSAFSCFQKAQLKSANTGNNERIINVSIKKLKRKPPGGGGEGGGGGEGGCPSCDSYEKKPPKEFLERFKSLLQKMIHQHLSSRTHGSEDS
VH: B1 VH
VL: B1 VL
notes: as for B1
Broadly, the Kd is the equilibrium constant for the complex coming apart. For orientation: koff means the first-order rate constant of dissociation. Low values mean slow dissociation, high ones fast dissociation. One may read the kon as the rate constant with which the complex forms. The low end stands for slow association, the high end for fast association. Consider B2, for which the “fold difference in IL-21R affinity against wild type IL-21” value (from here on “fold difference in IL-21R affinity”) in assay [2] is at most 2 fold. In assay [3], this molecule came in with a Kd of 0.094 nM, a koff of 0.00119 s⁻¹ and a kon of 1.27e+07 M⁻¹ s⁻¹.

B3: xhCD8.1-hIL21 v28 (other)
chain: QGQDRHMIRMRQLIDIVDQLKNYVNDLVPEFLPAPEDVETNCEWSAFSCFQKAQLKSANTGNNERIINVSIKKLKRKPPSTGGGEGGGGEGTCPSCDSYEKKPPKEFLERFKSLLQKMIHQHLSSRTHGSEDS
VH: B1 VH
VL: B1 VL
notes: as for B1
With B3, the “fold difference in IL-21R affinity” value in assay [2] was at most 2 fold. Also, in assay [3], the Kd is 0.106 nM, the off-rate (koff) was found to be 0.00139 s⁻¹ and the kon was determined as 1.31e+07 M⁻¹ s⁻¹.

B4: xhCD8.1-hIL21 v2.46 (other)
chain: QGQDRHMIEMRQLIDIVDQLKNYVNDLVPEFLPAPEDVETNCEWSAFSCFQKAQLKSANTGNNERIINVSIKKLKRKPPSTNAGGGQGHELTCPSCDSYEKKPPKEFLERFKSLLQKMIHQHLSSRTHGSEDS
VH: B1 VH
VL: B1 VL
notes: as for B1
As for B4, in assay [1], the binding result is listed as “no binding”.

B5: xhCD8.1-hIL21 v2.64 (other)
chain: QGQDRHMIRMRQFIDAADQLKNYVNDLVPEFLPAPEDVETNCEWSAFSCFQKAQLKSANTGNNERIINVSIKKMKRKPPSTNAGGGQGHELTCPSCDSYEKKPPKEFLERFKSLLQKMIHQHLSSRTHGSEDS
VH: B1 VH
VL: B1 VL
notes: as for B1
B5: in assay [4], the “STAT3 activation in human whole blood (pSTAT3, flow cytometry)” value (“STAT3 activation in human whole blood” for short) is above 100 fold.

B6: xhCD8.1-hIL21 v2.65 (other)
chain: B5 chain with F13R, A17I, M74I
VH: B1 VH
VL: B1 VL
notes: as for B1
Turning to B6, the “STAT3 activation in human whole blood” value in assay [4] is above 100 fold.

B7: xhCD8.1-hIL21 v27 (other)
chain: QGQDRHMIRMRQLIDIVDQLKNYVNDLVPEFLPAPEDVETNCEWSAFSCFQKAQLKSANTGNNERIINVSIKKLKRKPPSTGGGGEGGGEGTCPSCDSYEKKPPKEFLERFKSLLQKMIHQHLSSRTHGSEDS
VH: B1 VH
VL: B1 VL
notes: as for B1
For the molecule B7, in assay [2], the “fold difference in IL-21R affinity” value was at most 2 fold. In assay [3], this molecule returned a Kd of 0.106 nM, a koff of 0.00139 s⁻¹ and a kon of 1.31e+07 M⁻¹ s⁻¹.

B8: xhCD8.1-hIL21 v2.42 (other)
chain: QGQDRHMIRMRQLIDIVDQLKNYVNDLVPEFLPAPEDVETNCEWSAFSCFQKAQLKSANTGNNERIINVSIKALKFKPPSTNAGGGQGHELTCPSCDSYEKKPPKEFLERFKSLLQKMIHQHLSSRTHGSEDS
VH: B1 VH
VL: B1 VL
notes: as for B1
In the case of B8, the binding result in assay [1] is “no binding”.

B9: xhCD8.1-hIL21 v2.45 (other)
chain: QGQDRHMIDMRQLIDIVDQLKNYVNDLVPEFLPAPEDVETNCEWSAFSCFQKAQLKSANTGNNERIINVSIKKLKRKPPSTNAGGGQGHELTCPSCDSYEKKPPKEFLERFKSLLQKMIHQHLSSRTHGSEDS
VH: B1 VH
VL: B1 VL
notes: as for B1
B9: the binding result in assay [1] is on record as “no binding”.

B10: xhCD8.1-hIL21 v2.63 (other)
chain: B5 chain with F13L, A16R, A17I, M74I
VH: B1 VH
VL: B1 VL
notes: as for B1
As for B10, the “STAT3 activation in human whole blood” value in assay [4] is above 100 fold.

B11: xhCD8.1-hIL21 v2.43 (other)
chain: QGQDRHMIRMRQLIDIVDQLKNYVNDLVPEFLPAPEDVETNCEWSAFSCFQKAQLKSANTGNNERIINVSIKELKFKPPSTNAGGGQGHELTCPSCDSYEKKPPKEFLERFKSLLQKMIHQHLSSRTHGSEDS
VH: B1 VH
VL: B1 VL
notes: as for B1
Regarding B11, the binding result in assay [1] is listed as “no binding”.

B12: xhCD8.1-hIL21 v31 (other)
chain: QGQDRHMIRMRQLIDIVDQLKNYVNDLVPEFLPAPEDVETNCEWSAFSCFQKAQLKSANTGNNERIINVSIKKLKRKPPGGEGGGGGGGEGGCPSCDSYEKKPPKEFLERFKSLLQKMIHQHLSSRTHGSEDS
VH: B1 VH
VL: B1 VL
notes: as for B1
For B12, the “fold difference in IL-21R affinity” value in assay [2] is at most 2 fold. For the same molecule, in assay [3], binding was put at a Kd of 0.094 nM, the koff came to 0.00113 s⁻¹ and the on-rate constant (kon) is 1.2e+07 M⁻¹ s⁻¹.

B13: xhCD8.1-hIL21 v30 (other)
chain: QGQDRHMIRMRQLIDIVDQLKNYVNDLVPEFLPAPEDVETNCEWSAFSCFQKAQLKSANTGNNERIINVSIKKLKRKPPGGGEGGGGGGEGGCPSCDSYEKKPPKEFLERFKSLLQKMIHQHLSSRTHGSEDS
VH: B1 VH
VL: B1 VL
notes: as for B1
As for B13, the “fold difference in IL-21R affinity” value in assay [2] is at most 2 fold. In assay [3], binding was put at a Kd of 0.093 nM, the koff worked out at 0.00107 s⁻¹ and the kon stood at 1.16e+07 M⁻¹ s⁻¹.

B14: xhCD8v11 (antibody, V domains shown)
VH: EVQLVESGGGLVQPGGSLRLSCAASGFTFSSYAMSWVRQAPGKGLEWVSDITYAGGSTAYADSVKGRFTISRDNAKNSLYLQMNSLRAEDTAVYYCARSNAYAWDDALDIWGQGTLVTVSS
VL: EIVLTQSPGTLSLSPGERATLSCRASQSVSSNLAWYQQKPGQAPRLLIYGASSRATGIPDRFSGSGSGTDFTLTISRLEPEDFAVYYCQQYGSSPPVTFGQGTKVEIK
notes: used as targeting arm of fusions
For the molecule B14, the binding result in assay [5] is “no binding”.
